experiment: yeast display, Sf9 membrane polyspecificity reagent, FACS + sequencing; frameworks hold sequencing errors
In short: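 Sorting gates, low and high (top ~1%), were placed on anti-HA fluorescence to track expression and on streptavidin fluorescence to track reagent binding. A clone's polyreactivity label is taken from the gate it came out of. The reagent was 10% biotinylated, detergent-solubilized Sf9 membrane, applied for 1 hour at 4 °C to galactose-induced yeast display cells.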

Sequence | polyreactivity (PSR sort gate)
QVHLVESGGGLVQAGGSLRLSCAASGRIFYYYAMGWYRQAPGKERELVAGITITDASTYYADSVKGRFTISRDYAKNTVYLQMNSLKPEYTAVYYCNAVRYWEGRRYYYWGQGTQVTVSS | high polyreactivity
QVRLVESGGGLVQAGGSLRLSCAASGRIFVGYGLGWYRQAHGKERELVAAITSSGGSTYYADSVKGRFTISRDNAKNTVYLQMNSLKPEDTAVYYCAAERGYHGGVSGLYDYWGQGTQVTVSS | low polyreactivity
QVQLVESGGGLVQAGGSLRLSCAASGYNFENNVMGWYRQAPGKERELVAVISWNGGRTYYADSVKGRFTISRDNAKNTVYLQMNSLKPEDTAVYYCNDQGYFWSESIVYDYWGQGTQVTVSS | low polyreactivity
QVQLVESGGGLVQAGGSLRLSCAASGFTFRTYAMGWYRQAPGKERELVATIRRAGSTNYADSVKGRFTISRDNAKNTVYLQMNSLNPEDTAVYYCAARVVTRVRGVGYNYWGQGTQVTVSS | high polyreactivity
QVQLVESGGGLVQAGGSLRLSCAASGFTFLWYGMGWYRQAPGKERELVAAISSSGGSTYYADSVKGRFTISRDNAKNTVFLQMNSLKPEDTAVYYCAVAVSNQYVRYGYWGQGTQVTVSS | low polyreactivity
QVQLEESGGGLVQAGGRLRISCAASGRTFLCYAMGWSRQAPGKERELLAAISKSGGSTYYADSVKGRFTISRDNAKNTVYLQMNSLKPQDTAVYYCAVEVDVYTFSEFYYWGQGTQVTVSS | high polyreactivity
QVQLVESGGGLVQAGGSLRLSCAASGRIFKVYAMGWYRQAPGKERELVAVINGGGSTNYADSVKGRFTISRDNAKNTVYLQMNSLKPEDTAVYYCATEGYGHGGETDGGVYSDLGYWGQGTQVTVSS | low polyreactivity
QVQLVESGGGLVQGGGSLRLSCADSGRTSDGYPMRWYRQATGKERELVAVITEGGGDTYYADSVKGRFTISRDHSKNTVYLKMNSLKPEDSAVYYCNAVEGSRLTYDYWGQGTQVTVSS | low polyreactivity
QVQLVESGGGLVQAGGSLRLSCAASGRIFRPYTMVWSRQAPGKERELVAAINSSGGRTYYADSVKGRFTISRDNAKNTVYLEMNSLKPEDTAVYYCAVGWVFYRASNMNYWGQGTQVTVSS | high polyreactivity
QVQLVESGGGLVQAGGSLRLSCAASGRTFWYYAMGWYRQAPGKERELVASISASGGSTFYADSVKGRFSISRDHAKNTVYLQMNSLKPEDTAVYYCAAKNAVWRRYEYWGQGTQVTVSS | high polyreactivity
KVQLVESGGGLVQAGGSLRLSCAASGIFLDRNAMGWYRQAPGKERELVAAINSIGGSTYYADSVKGRFTISRDNAKNTVYLQMNSLKPEDTAVFYCAAPSTSSYYWGQGTQVTVSS | low polyreactivity
QVQLVESGGVLDQAGGSLGLSCAASGRTLRKYAMGWYRQAPGKERELVAAITWTGGTTYYADSVKGRFTISRDNAKNTVYLQMNTLKPEDTAFYFCGTVRRYGYGYDYWGQGTQVTVSS | high polyreactivity
QVQLQESGGGLVQAGGSLRLSCAASGSIFNVVDMGLYRQAPAKEREFVATIGEGGNTYYADSLKGSFTISRDNAKNTVYLQMNSLKPEDTAVYFYAVVLGTSFRYTYWGQGTQVTVSS | low polyreactivity
QVQLVDSGGGLVQAGGSLRLSCAASGITFGRYAMGWYRQAPGKERELVATITVNGGRTYYADSVKGRFTISRDNAKNTVYLQMNSLKPEDTAVYYCAAESAVDFDYWGQGTQVTVSS | low polyreactivity
QVQLVESGGGLVQAGGSLRLSCAASGSTFHYYAMGWYRQAPGKERELVAAISKSGGITYYADSVKGRFTISRDNAKNTVSLQMNSLKPEDTAVYYCNAYSASGYDYWGQGTQVTVSS | high polyreactivity
QVQHEESGRALVQAGGSLRLSCPPSGTTGIYAIGWYRQAPGKERELVAAITRRAGSTYYADSVKGRFTISRDNAKNRVYLLMTSLKPEDTAVYDCNATRGTATAYYYRWAGGYWGQGTQVTVSS | low polyreactivity
KVQHVESGGGLVQAGGSLRLSCAASGLTFYTNAMGWYRQPPGKESEFVADITTSGGDTYYADSVKGRFTISRDNAKNTVYLQMNSLKPEDTAVYYCGEFWSYWGYGQYDYWGQGTQVTVSS | low polyreactivity
QVQLVESGGGLVQAGGSLRLSCAASRRIFSDNAMGWNRKAPGKERELVAAITFRDGSTYADSVKGRFTISRDNAKNTVYLPMNSLKPEDTAVYYCNRRSQVHSHSKHDYWGQGTQVTVSS | low polyreactivity
QVQLVESGGGLVKAGGSLRLSCAASGSSFSSYAMGWYREAPGKEWELVAAISGGGNTYYADSVKGRFTISSDNAKNTVYLQMNSLKPEDTAVYYCNKSRLEPEYGYWGQGTQVTVSS | low polyreactivity
QVQLVESGGGLVQAGGSLRLSCAASGRTFTHNTMGWYRQAPGKERELVAAISRSGASTYYADSVKGRFTISRDNAKNTVYLQMNRLKPEDTAVYYCNAYSRPHFGYVVGTKSRHGYWGQGTQVTVSS | high polyreactivity
QVQLVESGGGLVQAGGSLRLSCAASGRIFYGYAMGWYRQAPGKERELVAAITSGSRTNYADSVKGRFTISRDNAKNTVYLQMNSLKPEDTAVYYCHSRYGSYLYSLVHNTRYDYWGQGTQVTVSS | low polyreactivity
QVQLVESGGGLVQAGGSLRLSCAASGITFRYYTMGWYRQAPGKERELVAAISRSGGSTYYADSVKGRFTISRDNAKNNVYLQMNSLKPEDTAVYYCAVDYTYDMDYWGQGTQVTVSS | high polyreactivity

Sequence | polyreactivity (PSR sort gate)
QVQLVESGGGLVQAGGSLRLSCAASGRTFGGNAMGWYRQAPGKERQLVASISSSGGRTYYAVSVKGRFTISRDNAKNTVYLQMNSLKPEDTAVYYCAVAWNVRGVGARQRYIYGYWGQGTQVTVSS | high polyreactivity
QVQLVESGGGLVQAGGSLRLSCAASGSTFSSYAMGWYRQAPGKERELVAAISRRGGRTYYADSVKGRFTISRDNAKNTVYLQMNRLKPEDTAVYYCAADWGVRDEYYYWGQGTQVTVSS | high polyreactivity
QVQLVESGGGLVQAGGSLRLSCAASGRTVPYAMGWYRQAPGKERELVATITYRVSTYYADSVKGRFTISRDNAKNTVYLQMNSLKPEDTEVYYCNTVTYPYVPALYDYWGQGTQVTVSS | high polyreactivity
QVQLVESGGGLVQAGGSLRLSCAASGITFSYNAMGWSRQAPGKERELVAAISSNSDSTYYADSVKGRFTISRDNAKNTVYLQMNSLKPEDTAVYYCAADSPDDPDYSGFYYWGQGSQVTVSS | low polyreactivity
QVQLVESGRGLVQAGGSLRISCAASGLILYTYAMGWYRQAPGKERELVAAITKSGGRTYYADSVKGRFTISRDNAKNTVYLQMNSLKPEDTAVYDCAARPYSRPYSFGFYYWGQGTQVTVSS | high polyreactivity
QVQLVESGGGIVQAGGSLRLSCAASGSIFHYYAMGWYRQAPGKESELVAAISWSGGRTNYADSVKGRFTISRDNAKNTVYLQMNSLKPEDTAVYYCAAAERSFSGGGKIGKYYYWGQGTQVTVSS | high polyreactivity
QVQLVESGGGLVQAGGSLRLSSADSGLTIKYYAMGWYRQAPGKERELVASILQSGSSTYYADSVKGRFTISRDYAKNTFYLQMNSMKPEDTAVYYCSAPRYCRSYGYDYWGQGTQVTVSS | high polyreactivity
LVQLVESGGGLVQAGGSLRLSCAASGSTFDGYAMGWYRQAPGKERELVAAIAYSGSSTYYADSVTGRFTISRDNSKNTVYIQMNSQKQEDTAVYYCAVDDTHPFGPDGGGDYWGQGTQVTVSS | low polyreactivity
QVQLVESAGGLVQAGGSLRLSCAASGRTFVHYAIGWYRPAPAKERELVAAISWSGGSTYYADSVKGRFTISRDNAKNTGYLQMNSLKPEDTAVYYCNAGGFAPGRYGEFDYWGQGTQVTVSS | low polyreactivity
QVQLVESGGGLVQAGGSLRVSCAASGNTFGPYAMGWYRQAPGKERELVAAISSGGSTNYADSVKGRFTISRDNAKNTVYLQMNSLKPEDTAVYYCARDAFSGSDFSYASIEYDYWGQGTQVTVSS | low polyreactivity
QVQLVESGGGLVQAGGSLRLSCAASGTIFRWYAMGWYRQARGKEREFVAAITSSGGSTYYADSVKGRFTISRDNAKNTVYLQMNSLKPEDTAVYYCAARGWTANYEMDHWGQGTQVTVSS | high polyreactivity
QVQLVESGGGLVQAGGILRLSCAPSGSTFRANAMGWYRQAPGKERELVAAITSGGSTNYADSVKGRFTISRDNAKNTVYLQRNSLKPEDTAVYYCADESYQEHSFYVYYGYDYWGQGTQVTVSS | low polyreactivity
QVQLVESGGGLVQAGGSLRLSCAASGSTFVRYVMGWYRQAPGKERELVAAIRYRGGSTYYADSVKGRFTISRDNAKNTVYLQMNSLKPEDTAVYYCATDWRRYTKQYGYWGQGTQVSVSS | high polyreactivity
QVQLVESGGGLVQAGGSLRLSCAASGSIFGAYAMGRYRQAPGKERELVAAITSGGSTNYADSVKGRFTISRDNAKNTVYLQMNSLKPEDTADYYCAARRRYAKFRYDYWGQGTQVTVSS | high polyreactivity
QVQLVESGGGLVQAGGSLRLSCAASGLTFRKNAMGWYRQAPGKERELVAGISSGGSTYYADSVKGRFTISRDNAKNTVYLQMNSLKPEDTAVYYCGANALRTMYYWGQGTQVNVSS | high polyreactivity
QVQLVESGGGLVQAGGSLRLSCAASGSTFLLYAMGWYRPAPGKERELVATISWGGDGTYYADSVKGRFTISRDNAKNTVYLQMNSLKPEDTAVYYCAAESYLVQFYFLYYYWGQGTQVTVSS | low polyreactivity
QDQHVESGGGLVQAGGSLRLSIAASASTIGFNAMGWYRQAPGKERELVAAITFSGGTTYYADSVKGRFTISRDNAKNTVYFQMNSLKPEDTAVYYCNADWWYQYSGPFAPWGEDYWGQGTQVTVSS | low polyreactivity
QVQHVESGGGLVQAGGSLRLSCAASGFTFHRYAMGWYRQAAGKERELVARISRSAGSTYYADSVKGRFTISRDNAKNTVYLQMNSLKPEDTAVYYCAAAQRRYGRGYGYWGQGTQVTVSS | high polyreactivity
QVQHVESGGGLVQAGGSLRLSCSASGITLPGSAIGWYRQAAGKVREFVAAISTSGGSTYYADSVKGRFTISRDYAKNTVYLQMNSLKPEDTAVYYCNARLVYYSYEEMDYWGQGTQVTVSS | low polyreactivity
QVQLVESGGGLVQAGGSLRLSCAASGRIFTLYDMGWYIQAPGKERELVAAISNSAGSTYYADSVKGRFTISRDNAKNTVYLQMNSLKPEDTAVYYCAAELWSWWGSRDYWGQGTQVTVSS | high polyreactivity
QVQLVESGGGLVQAGGSLRLSCAASGSIFRYYAMGWYIQAPGKERELVAGITGSTGRTYYADSVKGRFTISRDNAKNTVYLQMNSLKPEDTAVYYCAARSRYYEYDYWGQGTQVTVSS | low polyreactivity
